According to IntAct's records for PubMed 29892012:

B1: Genetic suppressor element 1 (Homo sapiens), Q14687 (parent)
chain: MKGMSHEPKSPSLGMLSTATRTTATVNPLTPSPLNGALVPSGSPATSSALSAQAAPSSSFAAALRKLAKQAEEPRGSSLSSESSPVSSPATNHSSPASTPKRVPMGPIIVPPGGHSVPSTPPVVTIAPTKTVNGVWRSESRQDAGSRSSSGGRERLIVEPPLPQEKAGGPAIPSHLLSTPYPFGLSPSSVVQDSRFPPLNLQRPVHHVVPPSTVTEDYLRSFRPYHTTDDLRMSSLPPLGLDPATAAAYYHPSYLAPHPFPHPAFRMDDSYCLSALRSPFYPIPTPGSLPPLHPSAMHLHLSGVRYPPELSHSSLAALHSERMSGLSAERLQMDEELRREREREREREREREADREREKEREREREKEREQEKEREREKERERELERQREQRAREKELLAAKALEPSFLPVAELHGLRGHATEERGKPSEQLTPTRAEKLKDAGLQAPKPVQHPLHPVPTPHHTVPSLISNHGIFSLPSSSAATALLIQRTNEEEKWLARQRRLRQEKEDRQSQVSEFRQQVLEQHLDMGRPPVPAEAEHRPESTTRPGPNRHEPGGRDPPQHFGGPPPLISPKPQLHAAPTALWNPVSLMDNTLETRRAESHSLHSHPAAFEPSRQAAVPLVKVERVFCPEKAEEGPRKREPAPLDKYQPPPPPPREGGSLEHQPFLPGPGPFLAELEKSTQTILGQQRASLPQAATFGELSGPLKPGSPYRPPVPRAPDPAYIYDEFLQQRRRLVSKLDLEERRRREAQEKGYYYDLDDSYDESDEEEVRAHLRCVAEQPPLKLDTSSEKLEFLQLFGLTTQQQKEELVAQKRRKRRRMLRERSPSPPTIQSKRQTPSPRLALSTRYSPDEMNNSPNFEEKKKFLTIFNLTHISAEKRKDKERLVEMLRAMKQKALSAAVADSLTNSPRDSPAVSLSEPATQQASLDVEKPVGVAASLSDIPKAAEPGKLEQVRPQELSRVQELAPASGEKARLSEAPGGKKSLSMLHYIRGAAPKDIPVPLSHSTNGKSKPWEPFVAEEFAHQFHESVLQSTQKALQKHKGSVAVLSAEQNHKVDTSVHYNIPELQSSSRAPPPQHNGQQEPPTARKGPPTQELDRDSEEEEEEDDEDGEDEEEVPKRKWQGIEAVFEAYQEHIEEQNLERQVLQTQCRRLEARHYSLSLTAEQLSHSVAELRSQKQKMVSERERLQAELDHLRKCLALPAMHWPRGYLKGYPR
partner: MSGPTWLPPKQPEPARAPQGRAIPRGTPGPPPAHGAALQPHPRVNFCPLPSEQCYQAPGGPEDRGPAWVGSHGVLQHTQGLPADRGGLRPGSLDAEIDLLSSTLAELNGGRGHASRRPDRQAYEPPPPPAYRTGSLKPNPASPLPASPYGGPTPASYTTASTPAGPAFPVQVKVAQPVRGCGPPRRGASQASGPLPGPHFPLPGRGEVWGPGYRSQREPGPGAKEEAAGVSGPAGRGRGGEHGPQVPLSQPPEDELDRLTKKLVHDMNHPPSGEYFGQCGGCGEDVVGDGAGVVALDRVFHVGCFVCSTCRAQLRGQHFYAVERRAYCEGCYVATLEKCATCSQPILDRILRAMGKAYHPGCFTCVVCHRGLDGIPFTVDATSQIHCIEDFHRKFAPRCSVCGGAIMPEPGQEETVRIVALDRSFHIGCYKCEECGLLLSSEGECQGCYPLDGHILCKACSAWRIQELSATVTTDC
B2: Coiled-coil domain-containing protein 120 (Homo sapiens), Q96HB5-4 (parent)
chain: MRREPRYQGQVGPDIHTDSERTLSSHQPRPLDSTKMEVKGQLISSPTFNAPAALFGEAAPQVKSERLRGLLDRQRTLQEALSLKLQELRKVCLQEAELTGQLPPECPLEPGERPQLVRRRPPTARAYPPPHPNQAHHSLCPAEELALEALEREVSVQQQIAAAARRLALAPDLSTEQRRRRRQVQADALRRLHELEEQLRDVRARLGLPVLPLPQPLPLSTGSVITTQGVCLGMRLAQLSQEDVVLHSESSSLSESGASHDNEEPHGCFSLAERPSPPKAWDQLRAVSGGSPERRTPWKPPPSDLYGDLKSRRNSVASPTSPTRSLPRSASSFEGRSVPATPVLTRGAGPQLCKPEGLHSRQWSGSQDSQMGFPRADPASDRASLFVARTRRSNSSEALLVDRAAGGGAGSPPAPLAPSASGPPVCKSSEVLYERPQPTPAFSSRTAGPPDPPRAARPSSAAPASRGAPRLPPVCGDFLLDYSLDRGLPRSGGGTGWGELPPAAEVPGPLSRRDGLLTMLPGPPPVYAADSNSPLLRTKDPHTRATRTKPCGLPPEAAEGPEVHPNPLLWMPPPTRIPSAGERSGHKNLALEGLRDWYIRNSGLAAGPQRRPVLPSVGPPHPPFLHARCYEVGQALYGAPSQAPLPHSRSFTAPPVSGRYYADFLYPPELSARLSDLTLEGEQSSSSDTQTPGTLV
partner: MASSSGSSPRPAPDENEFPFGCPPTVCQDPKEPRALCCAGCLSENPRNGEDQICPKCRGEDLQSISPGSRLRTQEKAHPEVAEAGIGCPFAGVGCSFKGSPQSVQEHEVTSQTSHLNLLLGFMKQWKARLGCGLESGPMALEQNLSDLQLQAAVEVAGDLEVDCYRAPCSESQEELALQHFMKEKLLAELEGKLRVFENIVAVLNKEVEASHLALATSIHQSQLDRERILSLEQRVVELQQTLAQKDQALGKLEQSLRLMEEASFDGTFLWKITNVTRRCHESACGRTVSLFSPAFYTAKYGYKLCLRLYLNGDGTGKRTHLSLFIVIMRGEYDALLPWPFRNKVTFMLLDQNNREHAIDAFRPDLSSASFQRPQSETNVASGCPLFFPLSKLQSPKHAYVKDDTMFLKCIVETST
B3: Zinc finger protein 64 (Homo sapiens), Q9NTW7 (parent)
chain: MNASSEGESFAGSVQIPGGTTVLVELTPDIHICGICKQQFNNLDAFVAHKQSGCQLTGTSAAAPSTVQFVSEETVPATQTQTTTRTITSETQTITVSAPEFVFEHGYQTYLPTESNENQTATVISLPAKSRTKKPTTPPAQKRLNCCYPGCQFKTAYGMKDMERHLKIHTGDKPHKCEVCGKCFSRKDKLKTHMRCHTGVKPYKCKTCDYAAADSSSLNKHLRIHSDERPFKCQICPYASRNSSQLTVHLRSHTASELDDDVPKANCLSTESTDTPKAPVITLPSEAREQMATLGERTFNCCYPGCHFKTVHGMKDLDRHLRIHTGDKPHKCEFCDKCFSRKDNLTMHMRCHTSVKPHKCHLCDYAAVDSSSLKKHLRIHSDERPYKCQLCPYASRNSSQLTVHLRSHTGDTPFQCWLCSAKFKISSDLKRHMIVHSGEKPFKCEFCDVRCTMKANLKSHIRIKHTFKCLHCAFQGRDRADLLEHSRLHQADHPEKCPECSYSCSSAAALRVHSRVHCKDRPFKCDFCSFDTKRPSSLAKHVDKVHRDEAKTENRAPLGKEGLREGSSQHVAKIVTQRAFRCETCGASFVRDDSLRCHKKQHSDQSENKNSDLVTFPPESGASGQLSTLVSVGQLEAPLEPSQDL
partner: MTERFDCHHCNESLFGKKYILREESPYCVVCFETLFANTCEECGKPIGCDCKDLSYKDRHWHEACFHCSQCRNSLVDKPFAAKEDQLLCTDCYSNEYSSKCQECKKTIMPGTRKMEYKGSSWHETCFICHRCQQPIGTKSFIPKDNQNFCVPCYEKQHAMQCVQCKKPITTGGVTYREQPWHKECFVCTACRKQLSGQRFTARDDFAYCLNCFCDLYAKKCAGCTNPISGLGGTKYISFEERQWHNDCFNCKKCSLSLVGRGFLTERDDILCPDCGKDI
B4: Ribosome assembly protein METTL17, mitochondrial (Homo sapiens), Q9H7H0 (parent)
chain: MAAALKCLLTLGRWCPGLGVAPQARALAALVPGVTQVDNKSGFLQKRPHRQHPGILKLPHVRLPQALANGAQLLLLGSAGPTMENQVQTLTSYLWSRHLPVEPEELQRRARHLEKKFLENPDLSQTEEKLRGAVLHALRKTTYHWQELSYTEGLSLVYMAARLDGGFAAVSRAFHEIRARNPAFQPQTLMDFGSGTGSVTWAAHSIWGQSLREYMCVDRSAAMLVLAEKLLKGGSESGEPYIPGVFFRQFLPVSPKVQFDVVVSAFSLSELPSKADRTEVVQTLWRKTGHFLVLVENGTKAGHSLLMDARDLVLKGKEKSPLDPRPGFVFAPCPHELPCPQLTNLACSFSQAYHPIPFSWNKKPKEEKFSMVILARGSPEEAHRWPRITQPVLKRPRHVHCHLCCPDGHMQHAVLTARRHGRDLYRCARVSSWGDLLPVLTPSAFPPSTAQDPSES
partner: B1 partner
B5: Ribosome assembly protein METTL17, mitochondrial (Homo sapiens), Q9H7H0 (parent)
chain: B4 chain
partner: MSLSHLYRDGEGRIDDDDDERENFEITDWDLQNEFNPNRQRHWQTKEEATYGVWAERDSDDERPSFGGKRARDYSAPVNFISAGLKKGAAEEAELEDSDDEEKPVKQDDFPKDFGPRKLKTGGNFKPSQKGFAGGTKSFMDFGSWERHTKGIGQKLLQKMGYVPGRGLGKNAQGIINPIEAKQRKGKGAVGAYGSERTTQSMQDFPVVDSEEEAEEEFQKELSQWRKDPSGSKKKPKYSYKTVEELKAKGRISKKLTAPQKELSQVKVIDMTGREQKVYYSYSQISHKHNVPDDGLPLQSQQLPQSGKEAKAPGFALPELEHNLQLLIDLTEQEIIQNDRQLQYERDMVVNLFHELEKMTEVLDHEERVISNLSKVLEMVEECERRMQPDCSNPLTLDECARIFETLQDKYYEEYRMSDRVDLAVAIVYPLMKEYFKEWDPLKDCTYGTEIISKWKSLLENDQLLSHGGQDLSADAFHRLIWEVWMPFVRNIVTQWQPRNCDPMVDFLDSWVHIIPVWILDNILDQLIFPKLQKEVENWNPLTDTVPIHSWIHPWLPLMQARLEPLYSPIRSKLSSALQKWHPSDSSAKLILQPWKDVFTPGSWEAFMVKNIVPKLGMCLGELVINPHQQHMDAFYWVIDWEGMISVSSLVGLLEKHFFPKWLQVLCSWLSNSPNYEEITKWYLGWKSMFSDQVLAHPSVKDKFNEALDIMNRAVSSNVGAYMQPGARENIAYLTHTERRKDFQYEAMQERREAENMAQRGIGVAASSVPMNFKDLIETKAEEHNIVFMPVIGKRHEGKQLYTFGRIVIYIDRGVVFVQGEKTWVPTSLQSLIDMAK

Variants of: B1
Conditions: with trip6_human TRIP6, Q15654

effect of a mutation on the interaction	Variant
with no effect	E368K

Variants of: B2
Conditions: with traf1_human TRAF1, Q13077

effect of a mutation on the interaction	Variant
with no effect	R346W

Variants of: B3
Conditions: with fhl2_human FHL2, Q14192

effect of a mutation on the interaction	Variant
with no effect	D227E

Variants of: B4
Conditions: with trip6_human TRIP6, Q15654

effect of a mutation on the interaction	Variant
with no effect	R212H

Variants of: B5
Conditions: with tfp11_human TFIP11, Q9UBB9

effect of a mutation on the interaction	Variant
disrupting interaction strength	R212H
